T1: botulinum neurotoxin E (Clostridium botulinum, UniProt Q00496 2-1251)
T1 sequence: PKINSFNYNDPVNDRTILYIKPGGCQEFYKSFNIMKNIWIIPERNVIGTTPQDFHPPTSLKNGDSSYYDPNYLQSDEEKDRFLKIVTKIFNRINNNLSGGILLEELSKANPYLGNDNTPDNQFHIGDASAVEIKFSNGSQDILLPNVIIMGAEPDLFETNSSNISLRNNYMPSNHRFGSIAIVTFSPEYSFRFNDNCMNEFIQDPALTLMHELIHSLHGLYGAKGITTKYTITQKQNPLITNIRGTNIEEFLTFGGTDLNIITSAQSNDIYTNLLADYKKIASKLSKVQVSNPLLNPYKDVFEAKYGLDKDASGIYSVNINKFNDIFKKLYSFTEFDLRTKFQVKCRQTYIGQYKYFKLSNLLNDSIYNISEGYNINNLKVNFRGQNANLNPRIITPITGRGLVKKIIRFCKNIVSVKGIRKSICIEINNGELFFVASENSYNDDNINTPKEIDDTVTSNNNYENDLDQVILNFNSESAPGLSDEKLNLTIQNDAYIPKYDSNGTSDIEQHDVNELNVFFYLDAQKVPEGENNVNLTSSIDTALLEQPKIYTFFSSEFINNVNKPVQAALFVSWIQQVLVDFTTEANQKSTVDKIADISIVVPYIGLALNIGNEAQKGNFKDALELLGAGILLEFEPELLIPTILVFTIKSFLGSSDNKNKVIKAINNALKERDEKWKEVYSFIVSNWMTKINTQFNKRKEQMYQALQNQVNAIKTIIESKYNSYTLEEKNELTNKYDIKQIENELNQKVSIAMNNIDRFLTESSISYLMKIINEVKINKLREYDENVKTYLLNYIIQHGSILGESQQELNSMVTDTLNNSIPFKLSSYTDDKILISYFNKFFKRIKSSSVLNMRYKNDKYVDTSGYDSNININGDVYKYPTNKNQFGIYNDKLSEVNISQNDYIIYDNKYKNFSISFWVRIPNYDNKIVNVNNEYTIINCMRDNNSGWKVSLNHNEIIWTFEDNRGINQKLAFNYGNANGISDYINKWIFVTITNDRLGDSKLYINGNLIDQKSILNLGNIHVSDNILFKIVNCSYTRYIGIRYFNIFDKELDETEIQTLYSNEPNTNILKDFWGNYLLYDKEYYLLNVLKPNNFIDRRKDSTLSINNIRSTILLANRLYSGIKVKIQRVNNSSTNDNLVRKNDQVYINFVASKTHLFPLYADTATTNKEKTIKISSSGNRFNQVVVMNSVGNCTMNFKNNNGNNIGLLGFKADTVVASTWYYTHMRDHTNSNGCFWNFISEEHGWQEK

B1: GST fusion of mouse synaptotagmin II lacking the C2B domain (residues 1-267) (receptor)
chain: MRNIFKRNQEPNVAPATTTATMPLAPVAPADNSTESTGPGESQEDMFAKLKEKFFNEINKIPLPPWALIAMAVVAGLLLLTCCFCICKKCCCKKKKNKKEKGKGMKNAMNMKDMKGGQDDDDAETGLTEGEGEGEEEKEPENLGKLQFSLDYDFQANQLTVGVLQAAELPALDMGGTSDPYVKVFLLPDKKKKYETKVHRKTLNPAFNETFTFKVPYQELAGKTLVMAIYDFDRFSKHDIIGEVKVPMNTVDLGQPIEEWRDLQGGE
B2: GST fusion of rat synaptotagmin IV lacking the C2B domain (receptor)
chain: MAPITTSRVEFDEIPTVVGIFSAFGLVFTVSLFAWICCQRRSAKSNKTPPYKFVHVLKGVDIYPENLSSKKKFGGDDKSEAKRKAALPNLSLHLDLEKRDLNGNFPKTNPKAGSSSDLENVTPKLFPETEKEAVSPESLKSSTSLTSEEKQEKLGTLFLSLEYNFEKKAFVVNIKEAQGLPAMDEQSMTSDPYIKMTILPEKKHKVKTRVLRKTLDPVFDETFTFYGVPYPHIQELSLHFTVLSFDRFSRDDVIGEVLVPLSGIELSDGKMLMTREIIKR
B3: GST fusion of rat synaptotagmin I lacking the C2B domain (receptor)
chain: MVSASHPEALAAPVTTVATLVPHNATEPASPGEGKEDAFSKLKQKFMNELHKIPLPPWALIAIAIVAVLLVVTCCFCVCKKCLFKKKNKKKGKEKGGKNAINMKDVKDLGKTMKDQALKDDDAETGLTDGEEKEEPKEEEKLGKLQYSLDYDFQNNQLLVGIIQAAELPALDMGGTSDPYVKVFLLPEKKKKFETKVHRKTLNPVFNEQFTFKVPYSELGGKTLVMAVYDFDRFSKHDIIGEFKVPMNTVDFGHVTEEWRDLQSA

Sequence of botulinum neurotoxin A (P0DPI0 2-1296 limits assumed): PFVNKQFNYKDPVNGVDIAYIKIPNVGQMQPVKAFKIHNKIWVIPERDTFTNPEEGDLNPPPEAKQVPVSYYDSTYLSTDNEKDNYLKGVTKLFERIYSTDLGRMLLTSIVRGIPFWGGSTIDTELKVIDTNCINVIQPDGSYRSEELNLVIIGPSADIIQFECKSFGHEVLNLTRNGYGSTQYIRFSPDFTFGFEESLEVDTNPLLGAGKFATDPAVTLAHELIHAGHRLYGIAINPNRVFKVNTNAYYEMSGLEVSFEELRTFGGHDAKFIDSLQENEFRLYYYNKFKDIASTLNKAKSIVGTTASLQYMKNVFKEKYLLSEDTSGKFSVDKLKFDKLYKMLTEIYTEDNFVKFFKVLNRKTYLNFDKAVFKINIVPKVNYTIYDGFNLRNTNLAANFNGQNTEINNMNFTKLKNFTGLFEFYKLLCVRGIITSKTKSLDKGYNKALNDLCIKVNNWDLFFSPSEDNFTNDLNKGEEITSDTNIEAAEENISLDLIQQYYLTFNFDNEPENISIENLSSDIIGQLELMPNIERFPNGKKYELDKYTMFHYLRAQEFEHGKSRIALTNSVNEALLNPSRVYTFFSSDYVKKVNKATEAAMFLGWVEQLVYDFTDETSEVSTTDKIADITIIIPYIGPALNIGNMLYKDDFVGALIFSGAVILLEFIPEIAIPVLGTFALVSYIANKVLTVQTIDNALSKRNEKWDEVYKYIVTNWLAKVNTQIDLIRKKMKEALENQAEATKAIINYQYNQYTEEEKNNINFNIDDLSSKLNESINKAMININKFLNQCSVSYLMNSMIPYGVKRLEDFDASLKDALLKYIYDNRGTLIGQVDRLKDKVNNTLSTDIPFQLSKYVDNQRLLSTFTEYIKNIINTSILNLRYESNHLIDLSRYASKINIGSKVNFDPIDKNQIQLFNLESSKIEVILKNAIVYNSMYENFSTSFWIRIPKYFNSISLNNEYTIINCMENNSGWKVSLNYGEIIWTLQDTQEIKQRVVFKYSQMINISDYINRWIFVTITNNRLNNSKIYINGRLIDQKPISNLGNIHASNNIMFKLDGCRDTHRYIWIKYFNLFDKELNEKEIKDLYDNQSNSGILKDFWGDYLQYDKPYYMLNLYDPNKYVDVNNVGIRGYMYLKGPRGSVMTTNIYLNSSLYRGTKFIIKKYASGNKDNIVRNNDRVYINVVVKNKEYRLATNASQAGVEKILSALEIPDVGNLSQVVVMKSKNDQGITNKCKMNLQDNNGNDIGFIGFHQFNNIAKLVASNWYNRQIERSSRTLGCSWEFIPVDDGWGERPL

The first assay addresses botulinum neurotoxin A (Clostridium botulinum, UniProt P0DPI0 2-1296). The assay can be described thus: GST pull-down with and without gangliosides, immunoblot.
In the case of B1, the binding result was “no binding (tested: 30 nM; also 300 nM (data not shown))”.

Consider B2, for which the binding result was “no binding (tested: 30 nM; also 300 nM (data not shown))”.

Consider B3, for which the binding result is on record as “no binding (tested: 30 nM; also 300 nM (data not shown))”.

The target of another assay is T1, botulinum neurotoxin E. Described as above.
Consider B1, for which the binding result is recorded as “no binding (tested: 30 nM; also 300 nM (data not shown))”.

As to B2, the binding result is reported as “no binding (tested: 30 nM; also 300 nM (data not shown))”.

As for B3, the binding result was “no binding (tested: 30 nM; also 300 nM (data not shown))”.

(Values after patent US20040191887A1 (WISCONSIN ALUMNI RESEARCH FOUNDATION, published 2004).)
